Results on six molecules are retold here after PMC5993284, “Peptide inhibitors of the anaphase promoting-complex that cause sensitivity to microtubule poison” (PLoS ONE, 2018).

Entries after “also recorded” stand apart in the source; their conditions may differ. Ends that are not written are not given here. * marks the point of attachment. Biotin = O=C1N[C@H]2[C@H](CS[C@H]2CCCCC(=O)*)N1

One may read the IC50 as the point on the concentration scale where inhibition reaches its midpoint.

Assay [1] deals with T1, APC/C^Cdc20 (Saccharomyces cerevisiae, UniProt P16522+P53886).
T1 construct: constructed within full-length Cdc20 by site-directed mutagenesis for analysis in vitro in the APC/C^Cdc20 assay; The APC/C was purified for enzyme assays from 1 mL of TAP-tagged Cdc16 yeast extract (SCSY51); made in house; host or cells: Cdc20: in vitro transcription/translation in rabbit reticulocyte lysate, used unpurified; APC/C: S. cerevisiae strain SCSY51 (Cdc16-TAP) extract, captured on IgG magnetic beads
Kind of assay: biochemical. The format is biochemical. The following applies: for inhibition of APC/C^Cdc20 activity (in words): 220 μM peptide, 35S-Pds1 substrate, time course 0-60 minutes, vs buffer only, n = 3. As to the method: Full-length, radio-labeled protein purifications were preformed as previously described. ^35S-Pds1 was prepared in a 500 μL IVT/T (In Vitro Transcription/Translation) reaction (Promega, USA), which contained 400 μL rabbit reticulocyte lysate, 20 μL of L-^35S-methionine (PerkinElmer, USA), 10 μg of plasmid DNA, and the remaining volume as nuclease-free ddH2O as recommended by the manufacturer. The reaction mixture was incubated for 2 hours at room temperature and gently mixed every 30 minutes. The reaction was added to pre-equilibrated IgG Sepharose beads (GE Healthcare, USA) in Bio-spin disposable chromatography columns (Bio-Rad, USA) for binding for 2 hours at room temperature. To ensure efficient binding, the beads were re-suspended several times every 30 minutes. After binding, the beads were washed with 5 mL wash buffer, containing 200 mM 4-(2-hydroxyethyl)-1-piperazineethanesulfonic acid (HEPES) at pH 8.0, 150 mM NaCl, 10% (v/v) glycerol, and 1 mM dithiothreitol (DTT). The ^35S-Pds1 was cleaved from the beads using TEV (Tobacco Etch Virus) protease in 1x TEV buffer (Invitrogen, USA) for 2 hours at room temperature, and the mixture was re-suspended several times every 30 minutes to promote efficient cleavage. The elution was collected and concentrated by employing an Amicon Ultra filter column (Millipore, Ireland). The concentrated ^35S-Pds1 was collected in a new tube, and stored at -20 °C.
The production of Cdc20 or Cdh1 was prepared by IVT/T reactions, where 16 μL of rabbit reticulocyte lysate, 20 μM L-methionine, 0.4 μg of plasmid DNA, and a volume of nuclease-free ddH2O for a total volume of 20 μL. This freshly synthesized Cdc20 or Cdh1 protein was used directly in all APC/C assays after a 1-hour synthesis reaction at room temperature. The APC/C was purified for enzyme assays from 1 mL of TAP-tagged Cdc16 yeast extract (SCSY51) where extract was mixed with 50 μL 50:50 slurry magnetic beads (Invitrogen, Norway) for 2 hours at 4 °C. After incubation, the beads were washed with 3 mL APC/C wash buffer (200 mM of HEPES, 150 mM of NaCl and 10% (v/v) of glycerol). APC/C bound to IgG magnetic beads was used directly in the enzyme assays.
APC/C assays were performed by adding the reaction contents in following order: 4.3 μL of QAH buffer, 20 μL of rabbit reticulocyte lysate containing Cdc20 or Cdh1 with or without an additional volume of recombinant checkpoint protein(s) or inhibitor peptides, 2.4 μL ubiquitin aldehyde (Boston Biochem, USA), APC/C, 16 μL pre-charged E1/E2/ATP/ubiquitin mix, and 13.3 μL of ^35S-Pds1 with QAH buffer (20 mM HEPES at pH 8.0, 100 mM NaCl, and 1 mM MgCl2). The E1/E2/ATP/ubiquitin mix were pre-charged by mixing 1 μL of E1 (Boston Biochem, USA), 1 μL of E2 (Boston Biochem, USA), 14.4 μL of ATP, 14.4 μL of […] (Boston Biochem, USA), and 17.2 μL of QAH buffer and incubated for 15 minutes at room temperature. Approximately 15 μL of samples were taken out at each time point, and the reaction was stopped by the addition of 2x protein sample buffer (125 mM Tris-HCl pH 6.8, 4% SDS, 20% glycerol, and 0.002% bromophenol blue, with 10% (final v/v) 2-mercaptoethanol added in fresh directly before use).
For inhibitor titration and time-course experiments, recombinant Bub3, Mad2, Mad3, and the Mad3-Bub3 complex were expressed and purified as previously described. […] For inhibition of APC/C the co-factor Cdc20 or Cdh1 was made fresh by IVT/T, and pure recombinant checkpoint proteins or inhibitor peptides were added to the IVT/T mixture and incubated for an additional hour at room temperature. In titrations, a dilution series of the checkpoint protein(s) were made before incubation with the Cdc20 co-factor. SDS-PAGE was performed using stand protocols (BioRad, USA).

Assay [2] concerns APC/C. Kind of assay: Biotinylated peptide pull-down of purified APC/C, Western blot. The format is binding, Saccharomyces cerevisiae. The following applies: 20 μM biotinylated peptide, purified yeast APC/C, 1 h at 4 °C, streptavidin/Avidin beads, n = 3. As to the method: For APC/C purification, the APC/C which contain Cdc16-TAP-tag was isolated from 2 mL arrested yeast lysate by 120 μL IgG sepharose 6 Fast Flow beads (GE Healthcare Life Sciences) and incubate for 2 h at 4 °C on a rotating wheel. Beads were collected washed with 5 mL of APC/C wash buffer (200 mM Hepes pH8.0, 150 mM NaCl, 10% glycerol). Beads were resuspended in 150 μL of APC/C wash buffer contain 17.6 units of AcTEV protease (Invitrogen, Carlsbad, CA) at 4°C for 3 h with pipetting every 20 minutes. The purified APC/C was collected in the flow-through.
For APC/C binding assays, 20 μM biotinylated peptides or 20 μM peptides only as a negative control were incubated with purified APC/C and 100 μL APC/C wash buffer which contains phosphatase inhibitors (200 mM Hepes pH 8.0, 150 mM NaCl, 10% glycerol, 10 mM NaF, 1 mM NaVO4, 5 mM Na-pyrophosphate, 10 mM 2-glycerol phosphate) for 1 h at 4 °C. The mixtures were applied to 120 μL streptavidin beads (Dynabeads MyOne Streptavidin T1, Invitrogen) for 30 min at 4 °C with gentle pipetting every 10 min. Beads were washed with 1 mL of PBST buffer (Phosphate buffer saline and 0.1% Tween 20) three times SDS-PAGE protein sample was added directly. For APC/C binding competition experiments, the biotinylated peptide and 10-fold excess non-biotinylated peptides were added to purified APC/C at same time.
Free D-biotin in 10% DMSO was used for the control binding assays. For pre-coating APC/C with biotin, a modified APC/C purification was performed. 2 mL yeast lysate was incubated with 120 μL IgG Sepharose beads and additional 20.4 μM free biotin or non-biotin solvent as a positive control was added and samples were incubated for 2 h at 4 °C on a rotating wheel. Purified pre-coated APC/C was then removed from the IgG Sepharose following the standard purification procedure. 20 μM biotinylated peptides or 20 μM peptides as a negative control were incubated with pre-coated APC/C and 100 μL APC/C wash buffer which contain phosphatase inhibitors for 1 h at 4 °C. In addition, 20 μM biotinylated peptide was added and incubated with pre-coated APC/C in a non-biotin containing solvent as positive control. Pre-coated APC/C binding procedures were same as above. For pre-coating streptavidin beads with biotin, streptavidin beads were washed in the presence of 10.2 nmol/mL D-biotin in PBST buffer or non-biotin solvent as a positive control before use. Pre-coated streptavidin beads were incubated with purified APC/C-peptide complexes with an extra […] biotin for 30 minutes with gentle pipetting every 10 min at 4 °C.
Proteins were separated in SDS-PAGE gels and then were transferred to PVDF membrane. Blocking was performed by incubating samples in 20 mL PBST with 5% milk at 4 °C. Rabbit anti-tap (Thermo, CAB1001) was used as primary antibodies at a 1:1000 dilution and incubated for 2 hours at RT. Anti-rabbit HRP (Jackson, USA) was then used as secondary antibody at 1:5000 dilution and incubate for 1 hr at RT. Chemiluminescence signals were detected using an ImageQuant LAS 4000 (GE Healthcare Bio-Sciences, USA). For cell cycle timing Western blots anti-MYC and anti-Actin antibodies were employed (ABCAM, UK).
In general terms: Immunoblotting shows a protein as a band on a membrane.

With “DK27: defined Mad2-binding motif peptide DK27 (Cdc20 197–223) (Biotin-DMNKRILQYMPEPPKCSSLRQKSYIMK)”, the “inhibition of APC/C^Cdc20 activity (in words)” value (“inhibition” for short) in assay [1] was “displayed a diminished ability to inhibit APC/C^Cdc20 although a significant difference with the buffer only control was still observed”. In assay [2], the “binding to APC/C (in words)” value is listed as “retained the ability to bind with the APC/C; also recorded: displayed the ability to bind APC/C similar to the control peptide DQ36”. Turning to “SQ19: C-terminal 19 amino acids, SQ19 (Cdc20 213–232) peptide (SSLRQKSYIMKKRTHYSYQQ; UniProt P26309 213-232, looked up, fragment)”, the “inhibition” value in assay [1] is “displayed a low level of inhibitory activity”. Besides, the “binding to APC/C (in words)” value in assay [2] is on record as “displayed the ability to bind APC/C similar to the control peptide DQ36”. With “PS46: N-terminal 46 amino acid peptide called PS46 (Cdc20 167–213) (LPPPNASPISHLRAQTKIVFKQNVAEACGLDMNKRILQYMPEPPKCS; UniProt P26309 167-213, looked up, fragment)”, the “inhibition” value in assay [1] was “observed to inhibit APC/C^Cdc20”. The “binding to APC/C (in words)” value in assay [2] is given as “able to bind to the APC/C directly, although consistently weaker binding was observed relative to DQ36; also recorded: consistently observed to have weaker APC/C binding activity relative to wild type DQ36”. Turning to “biotinylated-DQ36: DQ36 containing an N-terminal biotin (Biotin-DMNKRILQYMPEPPKCSSLRQKSYIMKKRTHYSYQQ)”, in assay [2], the “binding to APC/C (in words)” value is “able to pull-down purified APC/C”.

B1: Mad3-Bub3 complex + 0.5 μM Mad2: Mad3-Bub3 complex in the presence of 0.5 μM Mad2 (protein)
chain 1: MKAYAKKRISYMPSSPSQNVINFEEIETQKENILPLKEGRSAAALSKAIHQPLVEINQVKSSFEQRLIDELPALSDPITLYLEYIKWLNNAYPQGGNSKQSGMLTLLERCLSHLKDLERYRNDVRFLKIWFWYIELFTRNSFMESRDIFMYMLRNGIGSELASFYEEFTNLLIQKEKFQYAVKILQLGIKNKARPNKVLEDRLNHLLRELGENNIQLGNEISMDSLESTVLGKTRSEFVNRLELANQNGTSSDVNLTKNNVFVDGEESDVELFETPNRGVYRDGWENFDLKAERNKENNLRISLLEANTNLGELKQHEMLSQKKRPYDEKLPIFRDSIGRSDPVYQMINTKDQKPEKIDCNFKLIYCEDEESKGGRLEFSLEEVLAISRNVYKRVRTNRKHPREANLGQEESANQKEAEAQSKRPKISRKALVSKSLTPSNQGRMFSGEEYINCPMTPKGRSTETSDIISAVKPRQLTPILEMRESNSFSQSKNSEIISDDDKSSSSFISYPPQR
chain 2: MQIVQIEQAPKDYISDIKIIPSKSLLLITSWDGSLTVYKFDIQAKNVDLLQSLRYKHPLLCCNFIDNTDLQIYVGTVQGEILKVDLIGSPSFQALTNNEANLGICRICKYGDDKLIAASWDGLIEVIDPRNYGDGVIAVKNLNSNNTKVKNKIFTMDTNSSRLIVGMNNSQVQWFRLPLCEDDNGTIEESGLKYQIRDVALLPKEQEGYACSSIDGRVAVEFFDDQGDDYNSSKRFAFRCHRLNLKDTNLAYPVNSIEFSPRHKFLYTAGSDGIISCWNLQTRKKIKNFAKFNEDSVVKIACSDNILCLATSDDTFKTNAAIDQTIELNASSIYIIFDYEN
chain 3: MSQSISLKGSTRTVTEFFEYSINSILYQRGVYPAEDFVTVKKYDLTLLKTHDDELKDYIRKILLQVHRWLLGGKCNQLVLCIVDKDEGEVVERWSFNVQHISGNSNGQDDVVDLNTTQSQIRALIRQITSSVTFLPELTKEGGYTFTVLAYTDADAKVPLEWADSNSKEIPDGEVVQFKTFSTNDHKVGAQVSYKY
modifications: Mad2 added separately at 0.5 uM
For the molecule B1, in assay [1] (Mad3-Bub3 complex in the presence of 0.5 μM Mad2, ± sd, three independent titrations, read-out: IC50), the IC50 was 70 ± 3 nM.

B2: biotinylated-PQ65: PQ65 containing an N-terminal biotin (peptide, UniProt P26309 169-232, looked up, fragment)
chain: Biotin-PPNASPISHLRAQTKIVFKQNVAEACGLDMNKRILQYMPEPPKCSSLRQKSYIMKKRTHYSYQQ
With B2, in assay [2], the “binding to APC/C (in words)” value is “able to pull-down purified APC/C”.
